Source: patent publication US20240059799A1 (Pfizer, published 2024)
Positions count from the first letter of the chain named. Where two headings read alike, the source gives them in different places. Each block holds one binder with its values, some of them ahead of it.

What was measured:
recombinant human TL1A [1] = target: T1, recombinant human TL1A (human, UniProt O95150 71-251); assay: competition ELISA on plate-coated recombinant human TL1A, competitor biotinylated TL1A-0260 (bio-TL1A-0260), streptavidin-HRP, OD450
T1 construct: Homotrimeric cytokine; biotinylated with Sulfo-NHS-biotin where captured for SPR, coated unlabelled in ELISA, soluble in bioassays; also called TNFSF15
T1 chain: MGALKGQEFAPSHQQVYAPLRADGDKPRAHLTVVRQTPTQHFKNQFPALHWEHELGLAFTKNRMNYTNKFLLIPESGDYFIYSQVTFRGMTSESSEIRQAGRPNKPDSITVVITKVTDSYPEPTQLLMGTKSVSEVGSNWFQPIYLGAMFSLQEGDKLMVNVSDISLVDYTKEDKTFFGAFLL
Procedure: (§1) For this competition ELISA assay procedure, 96-well high binding plates (Corning, product number 3590) were coated with 1 μg/mL recombinant TL1A in 100 μL/well in Phospate Buffered Saline (PBS) overnight at 4° C. Plates were then blocked in PBS+0.02% casein solution and washed with PBS+0.05% Tween-20 following standard ELISA protocol. […] Plates were washed with PBS+0.05% Tween-20 following standard ELISA protocol, and Streptavidin-HRP (Southern Biotech, product number 7100-05) diluted to 1:10,000 in assay buffer was added to plates and incubated for 25-30 minutes at room temperature. Next, the plates were washed with PBS+0.05% Tween-20 following standard ELISA protocol, and then TMB substrate (BioFX Laboratories Catalog number TMBW-0100-01) was added to plates. Reactions were stopped after approximately 5 minutes by adding 0.18 M ortho-phosphoric acid to each well and absorbance was read at 450 nm.

recombinant human TL1A [2] = target: T1, recombinant human TL1A; assay: as above
Procedure: as §1

recombinant human TL1A [3] = target: T1, recombinant human TL1A; assay: as above
Procedure: as §1

recombinant human TL1A [4] = target: T1, recombinant human TL1A; assay: cell-based or functional assay
[5] = target: T2, full-length human TL1A on CHO-K1 cells (human, UniProt O95150 1-251); assay: flow cytometry on CHO-K1 cells stably expressing full-length human TL1A, PE anti-human IgG, median fluorescent intensity
T2 construct: whole, on cells; also called cells over-expressing human TL1A
T2 sequence (looked up): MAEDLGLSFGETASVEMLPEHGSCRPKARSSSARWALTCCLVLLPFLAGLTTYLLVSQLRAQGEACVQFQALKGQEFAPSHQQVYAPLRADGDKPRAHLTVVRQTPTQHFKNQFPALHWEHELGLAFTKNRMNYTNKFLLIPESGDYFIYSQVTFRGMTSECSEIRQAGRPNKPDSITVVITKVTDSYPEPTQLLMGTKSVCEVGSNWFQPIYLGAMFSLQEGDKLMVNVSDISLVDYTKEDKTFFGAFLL
Procedure: A cell binding assay was performed to examine if the panel of [xTL1A] bivalent antibody variants could bind to human TL1A over-expressed on the cell surface. […] [xTL1A] bivalent antibody variants were incubated with cells on ice for 30-60 minutes at a concentration of either 1 μg/mL or 20 μg/mL. Cells were pelleted by centrifugation at 1500 RPM for 5 minutes at 4° C. and supernatant was discarded by aspiration. The cells were washed three times with DPBS with 4% FBS buffer as described. Cells were resuspended in 100 μL of PE-anti-human IgG (Life technologies Catalog number H10104) diluted 1:500 in DPBS with 4% FBS buffer and incubated on ice for 15 minutes. Cells were washed three times as described and resuspended in 200 μL of DPBS with 4% FBS buffer, then run on a flow cytometry instrument.

recombinant human TL1A [6] = target: T1, recombinant human TL1A; assay: competition ELISA on plate-coated recombinant human TL1A, competitor biotinylated TL1A-0260 (bio-TL1A-0260), streptavidin-HRP, OD450
Procedure: as §1

recombinant human TL1A [7] = target: T1, recombinant human TL1A; assay: competition ELISA, coated TL1A, competitor bio-TL1A-0002
Procedure: as §1, with “Laboratories, catalog” for “Laboratories Catalog”

human IL-23 = target: T3, human IL-23 (human, UniProt P29460 23-328; Q9NPF7 20-189); assay: SPR, 37 C; antibody captured by anti-human Fc, human IL-23 injected
T3 construct: also called recombinant human IL-23 (p40/p19)
T3 sequence 1: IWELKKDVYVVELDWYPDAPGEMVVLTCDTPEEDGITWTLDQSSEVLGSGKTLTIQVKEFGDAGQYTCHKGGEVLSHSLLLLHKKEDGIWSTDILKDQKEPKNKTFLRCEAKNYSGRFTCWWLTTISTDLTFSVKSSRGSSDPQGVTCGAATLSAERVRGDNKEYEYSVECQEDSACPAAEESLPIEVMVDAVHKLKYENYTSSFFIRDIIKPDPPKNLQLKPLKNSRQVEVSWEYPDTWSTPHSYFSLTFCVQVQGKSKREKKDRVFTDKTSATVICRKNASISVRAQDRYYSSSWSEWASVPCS
T3 sequence 2: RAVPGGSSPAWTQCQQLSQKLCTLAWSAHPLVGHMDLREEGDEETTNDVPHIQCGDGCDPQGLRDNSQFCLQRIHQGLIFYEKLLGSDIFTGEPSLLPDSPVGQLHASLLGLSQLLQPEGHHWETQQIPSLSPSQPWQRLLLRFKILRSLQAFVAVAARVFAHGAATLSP
Procedure: (§2) SPR was utilized to determine if the affinity constants of each arm of the bispecific variants binding human IL-23, containing the p40 subunit, and human TL1A were the same for each bispecific approach. For the analysis of the p40 binding arm, kinetic assays were conducted at 37° C. using a collection rate of 10 Hz on a Biacore™ 8 K+ instrument (GE Healthcare). An anti-human IgG antibody (anti-human Fc, GE Healthcare, 22-0648-88) was amine coupled to all four flow cells of a carboxymethylated dextran coated sensor chip (GE Healthcare,) using the manufacturer's recommended protocol. […] For the analysis of the TL1A binding arm, kinetic assays were conducted at 37° C. using a collection rate of 10 Hz on a Biacore™ T200 instrument (GE Healthcare).
(§3) As described above in EXAMPLE 12, SPR was utilized to determine if the affinity constants of each arm of the bispecific variants binding human IL-23, containing the p40 subunit, and human TL1A were the same for each bispecific variant.

recombinant human TL1A [8] = target: T4, recombinant human TL1A (human, UniProt O95150 71-251); assay: cell-based or functional assay
T4 chain: T1 chain

recombinant human TL1A [9] = target: T4, recombinant human TL1A; assay: SPR, 37 C; biotinylated human TL1A captured on Biotin CAPture chip, antibody injected
Procedure: as §2, §3

- IC50 (read off the curve) (recombinant human TL1A [1]): ~4 nM
- IC50 (read off the curve) (recombinant human TL1A [2]): ~4 nM
- IC50 (read off the curve) (recombinant human TL1A [3]): ~7 nM
- TF-1 NF-κB reporter cell bioassay IC50 (recombinant human TL1A [4]): 29.2 nM
- TF-1 NF-κB reporter cell bioassay, Bioactivity relative to TL1A-0002 (recombinant human TL1A [4]): 0.8 fold
- Whole blood IFNγ assay IC50 (recombinant human TL1A [4]): 0.755 nM
- Whole blood IFNγ assay, Bioactivity relative to TL1A-0002 (recombinant human TL1A [4]): 0.9 fold
- binding result [5]: binds
- IC50 (read off the curve) (recombinant human TL1A [6]): ~4 nM
- Bioactivity relative to TL1A-0002 (recombinant human TL1A [7]): 1.3 fold
- IC50 (recombinant human TL1A [7]): 6.8 nM
B1: TL1A-0260 (antibody, human IgG1, kappa, V domains shown)
VH: QVQLVQSGAEVKKPGASVKVSCKASGYDYTYYGISWVRQAPGQGLEWMGWISTYNTGTHYAPSLQGRVTMTTDTSTSTAYMELRSLRSDDTAVYYCARESYYGSGAFRGGMDVWGQGTTVTVSS
VL: DIQMTQSPSSLSASVGDRVTITCRASQSVSSYLAWYQQKPGKAPKLLIYDASNRATGVPSRFSGSGSGTDFTLTISSLQPEDFATYYCQQRSNWPWTFGQGTKVEIKR
notes: human IgG1 effector-function-minimized/kappa; also called bio-TL1A-0260 (biotinylated reporter)

- binding result (recombinant human TL1A [3]): no binding (tested: 300 nM)
- binding result [5]: no binding (tested: 20 ug/mL)
B2: [xTL1A]-0341 (antibody, human IgG1, kappa, V domains shown)
VH: QVQLVQSGAEVKKPGASVKVSCKASGYTFTSYGISWVRQAPGQGLEWMGWISAYNGNTNYAQKLQGRVTMTTDTSTSTAYMELRSLRSDDTAVYYCARESSYGSEAFRAGMDVWGQGTTVTVSS
VL: B1 VL
notes: bivalent disabled antibody, IgG1 effector-function-minimized/kappa

- Kd (human IL-23): 0.194 nM
- koff (human IL-23): 0.00055 s⁻¹
- kon (human IL-23): 2.83e+06 M⁻¹ s⁻¹
- NF-κB assay IC50 (TF-1 reporter cells, 384-well) (recombinant human TL1A [8]): 0.27 nM
- Kd (recombinant human TL1A [9]): 0.627 nM
- koff (recombinant human TL1A [9]): 8.22e-05 s⁻¹
- kon (recombinant human TL1A [9]): 131000 M⁻¹ s⁻¹
B3: p40TL1A-0040 KiH mFd bispecific antibody (bispecific antibody)
heavy: EVQLVQSGAEVKKPGESLKISCKGSGYSFTTYWLGWVRQMPGKGLDWIGIMSPVDSDIRYSPSFQGQVTMSVDKSITTAYLQWNSLKASDTAMYYCARRRPGQGYFDFWGQGTLVTVSSASTKGPSVFPLAPSSKSTSGGTAALGCLVKDYFPEPVTVSWNSGALTSGVHTFPAVLQSSGLYSLSSVVTVPSSSLGTQTYICNVNHKPSNTKVDKKVEPKSCDKTHTCPPCPAPEAAGAPSVFLFPPKPKDTLMISRTPEVTCVVVDVSHEDPEVKFNWYVDGVEVHNAKTKPREEQYNSTYRVVSVLTVLHQDWLNGKEYKCKVSNKALPAPIEKTISKAKGQPREPQVYTLPPCREEMTKNQVSLSCAVKGFYPSDIAVEWESNGQPENNYKTTPPVLDSDGSFFLVSKLTVDKSRWQQGNVFSCSVLHEALHSHYTQKSLSLSPGK
light: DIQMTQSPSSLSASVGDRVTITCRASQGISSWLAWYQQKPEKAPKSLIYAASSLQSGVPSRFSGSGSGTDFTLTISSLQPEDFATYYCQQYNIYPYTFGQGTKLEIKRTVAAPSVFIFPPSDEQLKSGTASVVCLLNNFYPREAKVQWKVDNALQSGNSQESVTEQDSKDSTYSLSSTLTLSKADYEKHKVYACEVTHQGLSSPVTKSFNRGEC
LC-Fc: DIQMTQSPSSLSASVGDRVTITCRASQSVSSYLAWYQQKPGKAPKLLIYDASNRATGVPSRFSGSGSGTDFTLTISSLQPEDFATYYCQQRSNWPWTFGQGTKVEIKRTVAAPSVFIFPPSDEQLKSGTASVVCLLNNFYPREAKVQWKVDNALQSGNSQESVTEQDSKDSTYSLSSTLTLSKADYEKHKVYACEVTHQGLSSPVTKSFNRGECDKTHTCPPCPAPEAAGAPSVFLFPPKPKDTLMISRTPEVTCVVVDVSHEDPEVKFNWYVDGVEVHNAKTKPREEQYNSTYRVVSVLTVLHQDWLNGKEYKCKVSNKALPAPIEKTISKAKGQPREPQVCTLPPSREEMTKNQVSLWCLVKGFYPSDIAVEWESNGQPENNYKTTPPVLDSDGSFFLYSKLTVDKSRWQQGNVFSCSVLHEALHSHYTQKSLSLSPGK
mFd: QVQLVQSGAEVKKPGASVKVSCKASGYDYTYYGISWVRQAPGQGLEWMGWISTYNTGTHYAPSLQGRVTMTTDTSTSTAYMELRSLRSDDTAVYYCARESYYGSGAFRGGMDVWGQGTTVTVSSASTKGPSVFPLAPSSKSTSGGTAALGCLVKDYFPEPVTVSWNSGALTSGVHTFPAVLQSSGLYSLSSVVTVPSSSLGTQTYICNVNHKPSNTKVDKKVEPKSC
notes: Same format as p40TL1A-0033 with knob and hole swapped

- Kd (human IL-23): 0.213 nM
- koff (human IL-23): 0.000485 s⁻¹
- kon (human IL-23): 2.29e+06 M⁻¹ s⁻¹
- NF-κB assay IC50 (TF-1 reporter cells, 384-well) (recombinant human TL1A [8]): 0.32 nM
- Kd (recombinant human TL1A [9]): 0.577 nM
- koff (recombinant human TL1A [9]): 7.56e-05 s⁻¹
- kon (recombinant human TL1A [9]): 131000 M⁻¹ s⁻¹
B4: p40TL1A-0041 KiH mFd bispecific antibody (bispecific antibody)
heavy: QVQLVQSGAEVKKPGASVKVSCKASGYDYTYYGISWVRQAPGQGLEWMGWISTYNTGTHYAPSLQGRVTMTTDTSTSTAYMELRSLRSDDTAVYYCARESYYGSGAFRGGMDVWGQGTTVTVSSASTKGPSVFPLAPSSKSTSGGTAALGCLVKDYFPEPVTVSWNSGALTSGVHTFPAVLQSSGLYSLSSVVTVPSSSLGTQTYICNVNHKPSNTKVDKKVEPKSCDKTHTCPPCPAPEAAGAPSVFLFPPKPKDTLMISRTPEVTCVVVDVSHEDPEVKFNWYVDGVEVHNAKTKPREEQYNSTYRVVSVLTVLHQDWLNGKEYKCKVSNKALPAPIEKTISKAKGQPREPQVCTLPPSREEMTKNQVSLWCLVKGFYPSDIAVEWESNGQPENNYKTTPPVLDSDGSFFLYSKLTVDKSRWQQGNVFSCSVLHEALHSHYTQKSLSLSPGK
light: not shown
LC-Fc: not shown
mFd: EVQLVQSGAEVKKPGESLKISCKGSGYSFTTYWLGWVRQMPGKGLDWIGIMSPVDSDIRYSPSFQGQVTMSVDKSITTAYLQWNSLKASDTAMYYCARRRPGQGYFDFWGQGTLVTVSSASTKGPSVFPLAPSSKSTSGGTAALGCLVKDYFPEPVTVSWNSGALTSGVHTFPAVLQSSGLYSLSSVVTVPSSSLGTQTYICNVNHKPSNTKVDKKVEPKSC
notes: KiH mFd format with the anti-p40 arm as modified Fd

- Kd (human IL-23): 0.207 nM
- koff (human IL-23): 0.000488 s⁻¹
- kon (human IL-23): 2.35e+06 M⁻¹ s⁻¹
- NF-κB assay IC50 (TF-1 reporter cells, 384-well) (recombinant human TL1A [8]): 0.32 nM
- Kd (recombinant human TL1A [9]): 0.419 nM
- koff (recombinant human TL1A [9]): 7.42e-05 s⁻¹
- kon (recombinant human TL1A [9]): 177000 M⁻¹ s⁻¹
B5: p40TL1A-0042 KiH mFd bispecific antibody (bispecific antibody)
heavy: B4 heavy with C356Y, S361C, W373S, L375A, Y414V
light: not shown
LC-Fc: not shown
mFd: B4 mFd
notes: as for B4
